Measured values published in patent publication US20230285394A1, “METHODS OF TREATMENT OF NON-SMALL-CELL LUNG CARCINOMA USING TELISOTUZUMMAB VEDOTIN AND OSIMERTINIB” (AbbVie Biotherapeutics Inc., priority 2022, published 2023).

Columns and labels:
[1] = test system: c-Met expressing NSCLC; assay: First in human phase I trial of Teliso-V monotherapy (NCT02099058), best overall response by c-Met IHC cutoff; format: in vivo
Description: (§1) The clinical modeling data was obtained from the Teliso-V monotherapy trial NCT02099058. Abbreviations shown in FIG. 5 and determination of the values in the table are as follow: PPA (positive percent agreement): #oV positive uV positive/Total uV positive; NPA (Negative percent agreement): #oV negative uV negative/Total uV negative; OPA (Overall percent agreement): #oV positive uV positive+#oV negative uV negative/Total number of samples tested; PPV (Positive predictive value): #of oV positive uV positive/total #of oV positive; NPV (Negative predictive value): #of oV negative uV negative/Total oV negative. % BOR represents the percent best overall response.
as §1, with “FIG. 6” for “FIG. 5”
An analytical method comparison between SP44 Ultraview and SP44 OptiView on a large cohort of commercial NSCLC tissues was performed (FIG. 4). […] The overall percent agreement at this cutoff between the two assays was 93%. The first in human phase I clinical trial for Teliso-V monotherapy in NSCLC enrolled patients with an H-score of 150 using the SP44 UltraView assay. Upon re-scoring of the slides, the optimal cutoff utilizing the SP44 Ultraview IHC assay was ≥25% 3+ with a best overall response of 56%. The best overall response for the OptiView IHC assay at the same cutoff, ≥25% 3+, utilizing the phase I data through statistical modeling was 52% (FIG. 5).
The first in human phase I clinical trial for Teliso-V monotherapy in NSCLC enrolled patients with an H-score of 150 using the SP44 UltraView assay. […] The best overall response for the OptiView IHC assay at the same cutoff, ≥50% 3+, utilizing the phase I data through statistical modeling was 63% (FIG. 6).

[2] = test system: c-Met positive (≥25% 3+ IHC staining) advanced non-squamous NSCLC, EGFR mutant; assay: Phase 2 study (NCT03539536) of Teliso-V monotherapy, objective response rate; format: in vivo, human; conditions: Teliso-V monotherapy 1.9 mg/kg

B1: telisotuzumab vedotin (conjugate, chains of the INN, looked up)
VH: QVQLVQSGAEVKKPGASVKVSCKASGYIFTAYTMHWVRQAPGQGLEWMGWIKPNNGLANYAQKFQGRVTMTRDTSISTAYMELSRLRSDDTAVYYCARSEITTEFDYWGQGTLVTVSS
VL: DIVMTQSPDSLAVSLGERATINCKSSESVDSYANSFLHWYQQKPGQPPKLLIYRASTRESGVPDRFSGSGSGTDFTLTISSLQAEDVAVYYCQQSKEDPLTFGGGTKVEIK
modifications: vc-MMAE payload
notes: ADC of the c-Met targeting antibody ABT-700 conjugated to monomethyl auristatin E (MMAE) through a valine citrulline linker
[1]; patients at ≥25% 3+ cutoff, OptiView IHC assay, phase I data through statistical modeling
  best overall response: 52%
[1]; patients at ≥25% 3+ cutoff, SP44 Ultraview IHC assay, re-scored slides
  best overall response: 56%
[1]; patients at ≥50% 3+ cutoff, OptiView IHC assay, phase I data through statistical modeling
  best overall response: 63%
[1]; patients at ≥50% 3+ membrane staining cutoff, SP44 Ultraview IHC assay, re-scored slides
  best overall response: 67%
[2]; non-squamous NSCLC EGFR mutant patients, c-Met ≥25% 3+, interim analysis
  ORR (CR + PR): 11.6%
[2]; subset of EGFR mutant subjects previously treated with osimertinib
  ORR (CR + PR): 0%
[2]; subset of EGFR mutant subjects previously treated with osimertinib, listed as Teliso V
  ORR (CR + PR): 0%
